Key:
[1] = biological target: T1, human ULBP-1-Fc (R&D systems) (human, UniProt Q9BZM6 26-216, limits assumed); test: SPR, antibody injected over immobilized ULBP-1-Fc
T1 construct: Bought; not shown: Fc of the bought fusion protein
T1 sequence (looked up): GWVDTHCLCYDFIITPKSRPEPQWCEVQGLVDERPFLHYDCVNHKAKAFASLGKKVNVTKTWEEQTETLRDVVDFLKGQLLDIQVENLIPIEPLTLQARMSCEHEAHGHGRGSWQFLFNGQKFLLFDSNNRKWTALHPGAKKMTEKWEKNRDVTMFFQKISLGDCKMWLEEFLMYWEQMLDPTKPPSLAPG
Method: (§1) For cross-binding study, the human ULBP-1-Fc (R&D systems*), MICB-Fc (*), ULBP-2-Fc (*) and ULBP-3-Fc (*) recombinant proteins were covalently immobilized respectively on the flow cell one to four of a CM5 sensorchip. Anti-MICA antibodies (at a constant concentration of 10 μg/ml) were injected for 2 minutes at a flow rate of 10 μl/min onto the four flow cells in parallel. After each cycle, Sensorchip was regenerated by a five second injection of appropriate regeneration buffer.

[2] = biological target: T2, human ULBP-3-Fc (R&D systems) (human, UniProt Q9BZM4 30-217, limits assumed); test: SPR, antibody injected over immobilized ULBP-3-Fc
T2 construct: Bought; not shown: Fc of the bought fusion protein
T2 sequence (looked up): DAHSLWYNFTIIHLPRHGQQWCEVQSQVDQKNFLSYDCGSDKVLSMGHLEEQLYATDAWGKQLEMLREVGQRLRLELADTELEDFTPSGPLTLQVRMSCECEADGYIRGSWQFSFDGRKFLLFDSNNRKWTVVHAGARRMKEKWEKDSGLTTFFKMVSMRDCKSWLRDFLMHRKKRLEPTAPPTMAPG
Method: as §1

[3] = biological target: T3, MICA*001 expressed at the cell surface (human, UniProt Q29983 24-297); test: flow cytometry on C1R transfectant cells, 4-parameter logistic fit
T3 construct: the protein on cells also has its transmembrane and cytoplasmic parts (Genbank AAB41060); also called C1R-MICA*001; C1R-MICA*01
T3 sequence: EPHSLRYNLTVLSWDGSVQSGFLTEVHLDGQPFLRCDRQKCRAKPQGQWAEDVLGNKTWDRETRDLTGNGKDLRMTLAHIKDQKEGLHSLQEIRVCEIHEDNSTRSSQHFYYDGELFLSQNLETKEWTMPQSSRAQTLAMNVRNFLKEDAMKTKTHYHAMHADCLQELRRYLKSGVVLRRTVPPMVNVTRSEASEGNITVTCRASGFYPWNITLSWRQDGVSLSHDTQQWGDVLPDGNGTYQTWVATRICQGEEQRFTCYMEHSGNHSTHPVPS
Method: (§2) The binding of antibodies obtained from the first, second and third immunization series (including CHG1-M-MIA-19E9, CHG1-M-MIA-9C10, CHG1-M-MIA-6E4, CHG1-M-MIA-20C6, CHG1-M-MIA-16A8, CHG1-M-MIA-12A10, CHG1-M-MIA-10A7, CHG1-M-MIA-18E8, CHG1-M-MIA-10F3, CHG1-M-MIA-15F9 and CHG1-M-MIA-14B4) were tested for binding to MICA-expressing CR1 transfectant cells C1R-MICA*001, C1R-MICA*004, C1R-MICA*007 and C1R-MICA*008 (Pr. A. Steinle, Eberhard-Karls University Tuebingen, Germany) described in Salih et al. (2003) Blood 102(4): […]. Binding was analyzed by flow cytometry.
(§3) Cells were harvested and stained in PBS 1×/BSA 0.2%/EDTA 2 mM buffer during 30 minutes at 4° C. using a dose-range of the anti-MICA mAbs. After two washes in staining buffer, cells were stained for 30 min at 4° C. with mouse anti-human IgG1-PE monoclonal antibodies (1/11). After two washes, stainings were acquired on a BD FACS Canto II and analyzed using the FlowJo software.
(§4) Antibodies CHG1-M-MIA-19E9, CHG1-M-MIA-9C10, CHG1-M-MIA-6E4, CHG1-M-MIA-20C6, CHG1-M-MIA-12A10, CHG1-M-MIA-10A7, CHG1-M-MIA-18E8, CHG1-M-MIA-10F3, and CHG1-M-MIA-15F9 bound to each of the C1R-MICA*001, C1R-MICA*004, C1R-MICA*007 and C1R-MICA*008 cells (see FIG. 1A for antibodies CHG1-M-MIA-19E9, CHG1-M-MIA-9C10, CHG1-M-MIA-6E4, CHG1-M-MIA-20C6, CHG1-M-MIA-12A10, CHG1-M-MIA-10F3, and FIG. 1B for antibodies, CHG1-M-MIA-18E8, CHG1-M-MIA-15F9, CHG1-M-MIA-10A7). […] EC50 values are shown in Table C in μg/ml (calculated using a 4-parameter logistic fit).

[4] = biological target: T4, MICA*004 expressed at the cell surface (human, UniProt Q29983 24-297); test: as above
T4 construct: also called C1R-MICA*004; C1R-MICA*04
T4 chain: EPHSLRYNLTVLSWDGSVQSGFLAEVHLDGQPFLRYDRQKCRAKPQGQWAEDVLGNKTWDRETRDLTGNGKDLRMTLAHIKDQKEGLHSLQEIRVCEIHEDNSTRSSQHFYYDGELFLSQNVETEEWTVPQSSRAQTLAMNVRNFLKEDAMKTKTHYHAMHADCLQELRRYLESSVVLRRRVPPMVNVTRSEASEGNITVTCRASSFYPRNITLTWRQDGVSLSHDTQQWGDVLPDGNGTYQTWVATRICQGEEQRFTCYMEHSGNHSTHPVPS
Method: as §2, §3, §4

MICA*001-BirA = biological target: T5, MICA*001-BirA (human, UniProt Q29983 24-297); test: SPR single cycle kinetics, monovalent mean KD at pH 7.4, antibody captured on Protein-G chip, MICA-BirA injected
T5 construct: also called MICA-BirA; MICA*01-BirA; not shown: BirA tag
T5 sequence: T3 sequence
Method: For monovalent affinity measurement, chimeric anti-MICA antibodies were captured onto a Protein-G chip.
Affinities were determined using single cycle kinetics (SCK). SCK cycles were as follows: Successive 120s injections at 30 μl/min of 5 serial dilutions (0.01 to 100 nM) of MICA-His or MICA-BirA in ascending order (or of buffer for the blank injections to be subtracted during the analysis). After the last concentration is injected, complex is left to dissociate for 600s before regeneration by a 10s injection of appropriate regeneration buffer at 40 μl/min. After the regeneration, chip is left to stabilise for 60s in running buffer. Curves are fitted using Biacore T100 Evaluation software.

B1: CHG1-M-MIA-20C6 (antibody, V domains shown)
VH: QITLKESGPGILKPSQTLSLTCSFSGFSLSTSGMGVGWIRQPSGKGLEWLAHIWWDDDKYYNPSLKSQLTISKDTSRNQVFLRITSVDTADTATYYCARRTQGYFDYWGQGTTLTVSS
VL: DIVMTQSPATLSVTPGDRVSLSCRASQSISDYLHWYQQKSHESPRLLIKYASQSISGIPSRFSGSGSGSDFTLSINSVEPEDVGVYYCQNGHSFPWTFGGGTKLEIKR
notes: also called chimeric anti-MICA 20C6
With B1 the binding result [1] was “no binding (tested: 10 µg/ml)”, the binding result [2] was “no binding (tested: 10 µg/ml)” and the EC50 [3] was 0.26 µg/mL. The EC50 [4] was 0.05 µg/mL and the Kd (MICA*001-BirA) was 40 nM.

B2: CHG1-M-MIA-6E4 (antibody, V domains shown)
VH: EVQLVESGGALVKPGGSLKLSCAASGFTFSYYAMSWVRQTPEKRLEWVATISRGGNYIYYTDSVKGRFTISRDNAKNTLYLQMTSLRSEDTAMFYCASISDYDGAWLAYWGQGTTLTVSS
VL: DVLMTQTPLSLPVSLGDQASISCRSSQSIIHTNGNTYLEWYLQKPGQSPKLLIYKISNRFSGVPDRFSGSGSGTDFTLKISRVEAEDLGVYYCFQGSHVPWTFGGGTKLEIKR
notes: also called chimeric anti-MICA 6E4
For B2, the binding result [1] was “no binding (tested: 10 µg/ml)”, the binding result [2] was “no binding (tested: 10 µg/ml)” and the EC50 [3] was 1.96 µg/mL. It also gave an EC50 [4] of 2.67 µg/mL and a Kd (MICA*001-BirA) of 8.9 nM.

B3: CHG1-M-MIA-16A8 (antibody, V domains shown)
VH: EVQLVESGGGLVKPGGSLKLSCAASGFTFSRYAMSWVRQTPEKRLEWVATIFSGGSYTYYPDSVKGRFTISRDNANNTLYLQMSSLKAEDTAMYFCARPNWERTFDYWGQGTTLTVSS
VL: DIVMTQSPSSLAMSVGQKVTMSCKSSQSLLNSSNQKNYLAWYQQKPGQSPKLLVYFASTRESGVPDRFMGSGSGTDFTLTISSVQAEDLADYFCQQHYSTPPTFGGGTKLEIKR
notes: also called CHG1-M-MIA2-16A8; chimeric anti-MICA 16A8
With B3 the binding result [1] was “no binding (tested: 10 µg/ml)”, the binding result [2] was “no binding (tested: 10 µg/ml)” and the EC50 [3] was 1.07 µg/mL. The EC50 [4] was 0.44 µg/mL and the Kd (MICA*001-BirA) was 11.5 nM.

Source: patent publication US20200299380A1 (published 2020)
